Assay results: paper PMC3960984 (Nature structural & molecular biology, 2012)
No end group written: not given here.

Molecular target: human LRH-1 LBD (residues 299-541), loaded with DLPC (human, UniProt O00482 299-541)
Assay: fluorescence polarisation

human LRH-1 LBD (residues 299-541), loaded with DLPC, sequence (O00482 299-541): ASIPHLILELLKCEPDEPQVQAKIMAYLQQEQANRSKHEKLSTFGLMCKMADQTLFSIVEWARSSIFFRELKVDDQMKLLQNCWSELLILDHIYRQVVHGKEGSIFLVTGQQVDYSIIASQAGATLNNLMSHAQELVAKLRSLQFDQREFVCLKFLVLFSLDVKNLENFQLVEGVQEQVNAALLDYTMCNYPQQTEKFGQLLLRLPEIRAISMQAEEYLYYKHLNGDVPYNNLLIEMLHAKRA

Row | Binder | binding result
1 | PVSPKKKENALLRYLLDKDDT (also: fluorescein label, position not given here) [fluorescein labeled peptide derived from TIF2 NR Box 3] | binds
2 | EEPSLLKKLLLAPA (also: fluorescein label, position not given here) [fluorescein labeled peptide derived from human PGC-1α NR Box 2] | binds
3 | SPSSHSSLTERHKILHRLLQEGSP (also: fluorescein label, position not given here) [fluorescein labeled peptide derived from SRC-1 NR Box 2] | binds
